The target of experiment [1] is M2-mCherry2 (mCherry2 fused to the extracellular terminus of matrix protein 2 from influenza A/chicken/FPV/Rostock/1934) (influenza A/chicken/FPV/Rostock/1934).
In experiment [2] the target is PB1-mEGFP (IAV polymerase basic protein 1, influenza A/human/WSN/1933) (influenza A/human/WSN/1933).
The target in experiment [3] is PA-mEYFP (IAV polymerase acidic protein, influenza A/human/WSN/1933) (influenza A/human/WSN/1933) (UniProt P15659).
The target of experiment [4] is PB2-mCherry2 (IAV polymerase basic protein 2, influenza A/human/WSN/1933) (influenza A/human/WSN/1933).
Experiment [5] has as its target M2-mCherry2 (mCherry2 fused to the extracellular terminus of matrix protein 2 from influenza A/chicken/FPV/Rostock/1934) (influenza A/chicken/FPV/Rostock/1934). The source holds these as a separate data set.
In experiment [6] the target is PA-mEYFP (IAV polymerase acidic protein, influenza A/human/WSN/1933) (influenza A/human/WSN/1933) (UniProt P15659). The source holds these as a separate data set.
Experiment [7] addresses PB2-mCherry2 (IAV polymerase basic protein 2, influenza A/human/WSN/1933) (influenza A/human/WSN/1933). The source holds these as a separate data set.

“And” between values parts separate entries of the source, which are not always exact repeats. Equal entries are not always repeated. Where two headings read alike, the source gives them in different places.

Usually stoichiometry N stands for the number of molecules, sites or subunits per partner or assembly.

For “M2-mCherry2 (mCherry2 fused to the extracellular terminus of matrix protein 2 from influenza A/chicken/FPV/Rostock/1934) (natural protein)”, in experiment [1], the normalized molecular brightness is 2.24 and the stoichiometry N came out at 3.1.
“PB1-mEGFP (IAV polymerase basic protein 1, influenza A/human/WSN/1933) (natural protein)” registered a stoichiometry N in experiment [2] of 2.1. Besides, the relative cross-correlation (rel.cc.) in experiment [3] came to 0.93; in experiment [4], 0.47.
“LC3-mEYFP (from UniProt Q62625 1-120) (natural protein)” showed a relative cross-correlation (rel.cc.) in experiment [1] of 0.52. Besides, the stoichiometry N in experiment [5] was 0.5 LC3:M2 and 0.25 LC3:M2.
Substance “PA-mEYFP (IAV polymerase acidic protein, influenza A/human/WSN/1933) (from UniProt P15659 1-716) (natural protein)” returned a stoichiometry N in experiment [6] of 1.8. Further, in experiment [4], the relative cross-correlation (rel.cc.) is 0.39.
As for “PB2-mCherry2 (IAV polymerase basic protein 2, influenza A/human/WSN/1933) (natural protein)”, the stoichiometry N in experiment [7] turned out to be 2.2.

These data come from PMC8545396.
